Experimental data published in the RNAGym collection of RNA variant scans (doi:10.7554/elife.80360).

B1: Hairpin Ribozyme (parent)
chain: GUCCUCUUUCACGUGCGCGUGAAAGAGAGAAGUGAACCAGAGAAACACACGUUGUGGUAUAUUACCUGGUA

Variants of: B1
Assay: self-cleavage, relative activity (ratio to wild type); higher = more cleavage; co-transcriptional

Compared with GUCCUCUUUCACGUGCGCGUGAAAGAGAGAAGUGAACUAGAGAAACAAACGUUGUGGUAUAUUACCUGGUA, GUCCUCUUUCACGUGCGCGUGAAAGAGAGAAGUGAACUAGAGAAACACACGUUGUGCUAUAUUACCUGGUA is higher in self-cleavage: 0.142 for the first, 0.182 for the second.

Compared with GUCCUCUUUCACGUGCGCGUGAAAGAGAGAAGUGAACUAGACAAACACACGUUGUGGUAUAUUACCUGGUA, GUCCUCUUUCACGUGCGCGUGAAAGAGAGAAGUGAACUAGAUAAACACACGUUGUGGUAUAUUACCUGGUA is higher in self-cleavage: 0.177 for the first, 0.2 for the second.

First: GUCCUCUUUCACGUGCGCGUGAAAGAGAGAAGUGAACCCCAGAAACACACGUUGUGGUAUAUUACCUGGUA
Second: GUCCUCUUUCACGUGCGCGUGAAAGAGAGAAGUGAACUAGAGAAACACACGUUGUGGUCUAUUACCUGGUA
The self-cleavage of the first is lower: 0.0323 for the first, 0.228 for the second.

Compared with GUCCUCUUUCACGUGCGCGUGAAAGAGAGAAGUGAACUAGAGAAACACACGUUGGGGUAUAUUACCUGGUA, GUCCUCUUUCACGUGCGCGUGAAAGAGAGAAGUGAACCCGAGAAACACACGUUGUGGUAUAUUACCUGGUC is higher in self-cleavage: 0.137 for the first, 0.88 for the second.

Going from GUCCUCUUUCACGUGCGCGUGAAAGAGAGAAGUGAACCCGAGAAACAGACGUUGUGGUAUAUUACCUGGUA to GUCCUCUUUCACGUGCGCGUGAAAGAGAGAAGUGAACUAGAGAAACACACGUUGUGGUAUAUGACCUGGUA, the self-cleavage falls from 0.256 to 0.186.

Compared with GUCCUCUUUCACGUGCGCGUGAAAGAGAGAAGUGAACUAGAGAAACACACGUUGUGGUAUAUCACCUGGUA, GUCCUCUUUCACGUGCGCGUGAAAGAGAGAAGUGAACUAGAGAAACACACGUUGUGGUAGAUUACCUGGUA is higher in self-cleavage: 0.128 for the first, 0.431 for the second.

Compared with GUCCUCUUUCACGUGCGCGUGAAAGAGAGAAGUGAACUAGAGAAACACACGUUGUGGAAUAUUACCUGGUA, GUCCUCUUUCACGUGCGCGUGAAAGAGAGAAGUGAACCCGAGAAACACACGUUGUGGUAUAUUCCCUGGUA is lower in self-cleavage: 0.333 for the first, 0.193 for the second.

Going from GUCCUCUUUCACGUGCGCGUGAAAGAGAGAAGUGAACUAGAGAAACACACGUUGUGGUAUAUUACCGGGUA to GUCCUCUUUCACGUGCGCGUGAAAGAGAGAAGUGAACCCGAGCAACACACGUUGUGGUAUAUUACCUGGUA, the self-cleavage falls from 0.204 to 0.14.

Going from GUCCUCUUUCACGUGCGCGUGAAAGAGAGAAGUGAACCCGAGUAACACACGUUGUGGUAUAUUACCUGGUA to GUCCUCUUUCACGUGCGCGUGAAAGAGAGAAGUGAACUAGAGAAACACACGUUGUCGUAUAUUACCUGGUA, the self-cleavage rises from 0.123 to 0.171.

Going from GUCCUCUUUCACGUGCGCGUGAAAGAGAGAAGUGAACCCGAGAAACACACGUUGUGGUAUAUUACAUGGUA to GUCCUCUUUCACGUGCGCGUGAAAGAGAGAAGUGAACUAGAGAAACACACGUUGUGGUAUAUUACCUGGUG, the self-cleavage rises from 0.152 to 0.681.

Compared with GUCCUCUUUCACGUGCGCGUGAAAGAGAGAAGUGAACUAGAGAAACACACGCUGUGGUAUAUUACCUGGUA, GUCCUCUUUCACGUGCGCGUGAAAGAGAGAAGUGAACUAGAGAAAGACACGUUGUGGUAUAUUACCUGGUA is lower in self-cleavage: 0.598 for the first, 0.123 for the second.

Going from GUCCUCUUUCACGUGCGCGUGAAAGAGAGAAGUGAACUAGAGAAACACACGUUGUGGUAUAUUAGCUGGUA to GUCCUCUUUCACGUGCGCGUGAAAGAGAGAAGUGAACUAGAGAAACACACGUUGUGGUAUAUUACCUGGGA, the self-cleavage rises from 0.164 to 0.39.

First: GUCCUCUUUCACGUGCGCGUGAAAGAGAGAAGUGAACCCGAGAAACACACGUUGUGGUAUCUUACCUGGUA
Second: GUCCUCUUUCACGUGCGCGUGAAAGAGAGAAGUGAACUAGAGAAACACACGUCGUGGUAUAUUACCUGGUA
The self-cleavage of the first is lower: 0.117 for the first, 0.823 for the second.

First: GUCCUCUUUCACGUGCGCGUGAAAGAGAGAAGUGAACUAGAGAAACACACGUAGUGGUAUAUUACCUGGUA
Second: GUCCUCUUUCACGUGCGCGUGAAAGAGAGAAGUGAACUAGAGAAACACACGUGGUGGUAUAUUACCUGGUA
The self-cleavage of the first is higher: 0.731 for the first, 0.431 for the second.

First: GUCCUCUUUCACGUGCGCGUGAAAGAGAGAAGUGAACUAGAGAAACACACGUUGUGGUAUUUUACCUGGUA
Second: GUCCUCUUUCACGUGCGCGUGAAAGAGAGAAGUGAACCCGAGAUACACACGUUGUGGUAUAUUACCUGGUA
The self-cleavage of the first is higher: 0.164 for the first, 0.129 for the second.

Compared with GUCCUCUUUCACGUGCGCGUGAAAGAGAGAAGUGAACUAGAGAAACACACGUUGUGGUAUAUUACCUCGUA, GUCCUCUUUCACGUGCGCGUGAAAGAGAGAAGUGAACCCGAGAAACACACGUUGUGGUAUAUUAUCUGGUA is higher in self-cleavage: 0.171 for the first, 0.401 for the second.

Compared with GUCCUCUUUCACGUGCGCGUGAAAGAGAGAAGUGAACCCGAGAAACACACGUUGUGGUAUAUUAGCUGGUA, GUCCUCUUUCACGUGCGCGUGAAAGAGAGAAGUGAACUAGAGAAACACAAGUUGUGGUAUAUUACCUGGUA is higher in self-cleavage: 0.167 for the first, 0.207 for the second.

Going from GUCCUCUUUCACGUGCGCGUGAAAGAGAGAAGUGAACCCGAGAAACUCACGUUGUGGUAUAUUACCUGGUA to GUCCUCUUUCACGUGCGCGUGAAAGAGAGAAGUGAACUACAGAAACACACGUUGUGGUAUAUUACCUGGUA, the self-cleavage falls from 0.151 to 0.118.

Compared with GUCCUCUUUCACGUGCGCGUGAAAGAGAGAAGUGAACUAGAGAAACACACGUUGUGGUAUAUUACCUGCUA, GUCCUCUUUCACGUGCGCGUGAAAGAGAGAAGUGAACCCGCGAAACACACGUUGUGGUAUAUUACCUGGUA is higher in self-cleavage: 0.158 for the first, 0.349 for the second.
